Assay results from patent publication US20080292620A1.

T1: human prolactin receptor (PRLR), full length on cells (human) (UniProt P16471)
T1 sequence: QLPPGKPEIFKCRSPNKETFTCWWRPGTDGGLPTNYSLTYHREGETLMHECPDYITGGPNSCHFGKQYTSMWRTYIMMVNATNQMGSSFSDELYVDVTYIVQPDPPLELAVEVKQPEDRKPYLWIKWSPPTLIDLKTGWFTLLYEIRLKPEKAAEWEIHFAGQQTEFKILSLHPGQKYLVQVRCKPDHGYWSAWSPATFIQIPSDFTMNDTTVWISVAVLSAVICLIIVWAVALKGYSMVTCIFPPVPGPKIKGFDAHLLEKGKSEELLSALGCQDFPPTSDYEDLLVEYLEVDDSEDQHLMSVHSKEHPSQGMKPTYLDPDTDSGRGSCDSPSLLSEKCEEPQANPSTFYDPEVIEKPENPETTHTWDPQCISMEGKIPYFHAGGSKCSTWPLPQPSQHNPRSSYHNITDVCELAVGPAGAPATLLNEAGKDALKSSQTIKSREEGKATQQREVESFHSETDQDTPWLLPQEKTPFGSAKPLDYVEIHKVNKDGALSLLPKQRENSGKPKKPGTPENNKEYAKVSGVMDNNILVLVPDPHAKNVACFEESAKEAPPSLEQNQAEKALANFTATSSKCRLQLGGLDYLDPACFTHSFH


What was measured:
[1] = target: recombinant extracellular domain (ECD) of the human prolactin receptor (PRLR) (human) (UniProt P16471); assay: Biacore SPR, procedures similar to Table 6, PRLR ECD
[2] = target: T1, human prolactin receptor (PRLR), full length on cells (human); assay: cell-based or functional assay
[3] = target: recombinant extracellular domain (ECD) of the human prolactin receptor (PRLR) (human) (UniProt P16471); assay: Biacore 2000 SPR, antibody captured, PRLR ECD injected

Row | Binder | Kd [1] [nM] | Proliferation inhibition IC50 for BaF3/PRLR [2] | pERK1/2 inhibition IC50 (prolactin-stimulated T47D cells) [2] | Kd [3] [nM]
1 | XHA.06.642 (antibody, from another filing, V domains shown) VH: EVQLVESGGDLVKPGGSLKLSCAVSGFTFSSYGMSWVRQTPDKRLEWVATVSSGGTYTYYPDSVKGRFTISRDNAKNTLYLQMSSLKSEDSAMYYCARHRGNYYATYYYAMDYWGQGTSVTVSS VL: DIVLTQSPASLAVSLGQGATISCRASKSVSTSGYTYMHWYQQKPGQPPKLLIYLASNLESGVPARFSGSGSGTDFTLNIHPVEEEDAATYYCQHSGELPPSFGGGTKLEIKR | 0.934 |  |  | 
2 | XHA.06.983 (antibody, from another filing, V domains shown) VH: DVQLVESGGGLVQPGGSRKLSCAASGFAFSSFGMQWVRQAPEKGLEWVAYISSGSSTIYYADTVKGRFTISRDNPKNTLFLQMTSLRSEDTAMYYCVRSGRDYWGQGTSVTVSS VL: SIVMTQTPKFLLVSAGDRVTITCKASQGVSNDVAWFQQKPGQSPKLLIYSASTRYTGVPDRLTGSGYGTDFTFTINTVQAEDLAVYFCQQDYTSPTFGGGTKLEIKR | 0.043 | 0.1 | 0.11 | 0.1
